The subject of data set [1] is BD009-SDpol-1 (synthetic construct). Conditions: RT-LAMP time at 10000 copies RNA; 7 mM MgSO4, 50 mM KCl, pH 8.8; 18.6 min at 10 copies.
The test system of data set [2] is Bst 2.0. The following applies: RT-LAMP time at 10000 copies RNA; 8 mM MgSO4, 50 mM KCl, pH 8.8; none at 100 copies.

On to SARS-CoV-2 gene N LAMP target, for which the activity in data set [1] amounted to 8.7 min; in data set [2], 30 min.

(Values after patent US20250197923.)
